First the molecules themselves.
B1: YPEL3 (parent)
chain: SKPKTFQAYLDDCHRRYSCAHCRA

The record followed here is the supplement of paper PMC10567573.
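Also: lentivirally expressed fusions sorted by FACS into six bins by GFP to DsRed ratio, PSI derived from sequencing read proportions per bin multiplied by bin number.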

This series covers variants of B1. The series is described as follows: protein stability index of a GFP-peptide fusion (GPS, HEK-293T) (PSI 1-6); higher = more stable. As to conditions: c terminus: a fixed tail appended.
Regarding SKPKTFQAYLDDCHRKYSCAHCRA [R16K], the protein stability index is 1.73.
Take SKPKTFQAYLDDCHRDYSCAHCRA [R16D]: the protein stability index came to 2.45.
For the variant SKPKTFQAYLDDCHRHYSCAHCRA [R16H], the protein stability index was determined as 2.3.
On to SKPKTFQAYLDDCHRPYSCAHCRA [R16P], for which the protein stability index is 1.94.
In the case of SKPKTFQAYLDDCHRVYSCAHCRA [R16V], the protein stability index amounted to 2.34.
Turning to SKPKTFQAYLDDCHRSYSCAHCRA [R16S], the protein stability index worked out at 1.59.
As for SKPKTFQAYLDDCHRTYSCAHCRA [R16T], the figure is 2.46.
As for SKPKTFQAYLDDCHRNYSCAHCRA [R16N], the figure is 1.45; as for SKPKTFQAYLDDCHRAYSCAHCRA [R16A], 1.76.
For SKPKTFQAYLDDCHRIYSCAHCRA [R16I], the protein stability index amounted to 1.55.
Regarding SKPKTFQAYLDDCHREYSCAHCRA [R16E], the protein stability index stood at 3.04.
Take SKPKTFQAYLDDCHRFYSCAHCRA [R16F]: the protein stability index was determined as 1.76.
As for SKPKTFQAYLDDCHRYYSCAHCRA [R16Y], the figure is 1.83; as for SKPKTFQAYLDDCHRCYSCAHCRA [R16C], 2.4.
As for SKPKTFQAYLDDCHRMYSCAHCRA [R16M], the figure is 1.88.
As for SKPKTFQAYLDDCHRLYSCAHCRA [R16L], the protein stability index turned out to be 2.33.
For SKPKTFQAYLDDCHRGYSCAHCRA [R16G], the protein stability index came out at 1.33.
As for SKPKTFQAYLDDCHRQYSCAHCRA [R16Q], the figure is 2.5.
As for SKPKTFQAYLDDCHRRKSCAHCRA [Y17K], the protein stability index was 3.43.
Regarding SKPKTFQAYLDDCHRRNSCAHCRA [Y17N], the protein stability index worked out at 1.8.
As for SKPKTFQAYLDDCHRRASCAHCRA [Y17A], the protein stability index was found to be 1.99.
As for SKPKTFQAYLDDCHRRISCAHCRA [Y17I], the protein stability index stood at 2.13.
In the case of SKPKTFQAYLDDCHRRRSCAHCRA [Y17R], the protein stability index stood at 2.79.
As for SKPKTFQAYLDDCHRRLSCAHCRA [Y17L], the figure is 2; as for SKPKTFQAYLDDCHRRFSCAHCRA [Y17F], 3.01.
Turning to SKPKTFQAYLDDCHRRCSCAHCRA [Y17C], the protein stability index is 3.26.
With SKPKTFQAYLDDCHRRDSCAHCRA [Y17D], the protein stability index was determined as 2.44.
Take SKPKTFQAYLDDCHRRPSCAHCRA [Y17P]: the protein stability index is 1.93.
As for SKPKTFQAYLDDCHRRMSCAHCRA [Y17M], the figure is 1.64; as for SKPKTFQAYLDDCHRRVSCAHCRA [Y17V], 1.39; as for SKPKTFQAYLDDCHRRGSCAHCRA [Y17G], 2.02.
For the variant SKPKTFQAYLDDCHRRTSCAHCRA [Y17T], the protein stability index was 2.37.
In the case of SKPKTFQAYLDDCHRRSSCAHCRA [Y17S], the protein stability index was 1.89.
Consider SKPKTFQAYLDDCHRRHSCAHCRA [Y17H], for which the protein stability index turned out to be 2.07.
Turning to SKPKTFQAYLDDCHRRESCAHCRA [Y17E], the protein stability index was found to be 2.66.
With SKPKTFQAYLDDAHRRYSCAHCRA [C13A], the protein stability index amounted to 1.8.
Turning to SKPKTFQAYLDDRHRRYSCAHCRA [C13R], the protein stability index worked out at 2.19.
As for SKPKTFQAYLDDNHRRYSCAHCRA [C13N], the protein stability index came out at 2.27.
As for SKPKTFQAYLDDEHRRYSCAHCRA [C13E], the figure is 1.78.
SKPKTFQAYLDDLHRRYSCAHCRA [C13L]: the protein stability index worked out at 2.12.
Turning to SKPKTFQAYLDDQHRRYSCAHCRA [C13Q], the protein stability index stood at 2.48.
Regarding SKPKTFQAYLDDHHRRYSCAHCRA [C13H], the protein stability index is 1.75.
For the variant SKPKTFQAYLDDKHRRYSCAHCRA [C13K], the protein stability index worked out at 2.69.
As for SKPKTFQAYLDDSHRRYSCAHCRA [C13S], the figure is 2.25; as for SKPKTFQAYLDDFHRRYSCAHCRA [C13F], 2.1; as for SKPKTFQAYLDDIHRRYSCAHCRA [C13I], 1.94.
As to SKPKTFQAYLDDDHRRYSCAHCRA [C13D], the protein stability index was found to be 1.99.
SKPKTFQAYLDDPHRRYSCAHCRA [C13P]: the protein stability index is 1.68.
As for SKPKTFQAYLDDTHRRYSCAHCRA [C13T], the figure is 2.01; as for SKPKTFQAYLDDWHRRYSCAHCRA [C13W], 1.71.
As for SKPKTFQAYLDDYHRRYSCAHCRA [C13Y], the figure is 2.44; as for SKPKTFQAYLDDVHRRYSCAHCRA [C13V], 2.54.
For SKPKTFQAYLDDMHRRYSCAHCRA [C13M], the protein stability index was 2.79.
Take SKPKTFQAYLDDGHRRYSCAHCRA [C13G]: the protein stability index came to 2.07.
Regarding SKPKTFQAYLADCHRRYSCAHCRA [D11A], the protein stability index turned out to be 1.89.
In the case of SKPKTFQAYLYDCHRRYSCAHCRA [D11Y], the protein stability index turned out to be 1.72.
Consider SKPKTFQAYLTDCHRRYSCAHCRA [D11T], for which the protein stability index came to 2.14.
In the case of SKPKTFQAYLPDCHRRYSCAHCRA [D11P], the protein stability index was 2.54.
With SKPKTFQAYLFDCHRRYSCAHCRA [D11F], the protein stability index came out at 3.03.
For the variant SKPKTFQAYLSDCHRRYSCAHCRA [D11S], the protein stability index is 1.9.
In the case of SKPKTFQAYLMDCHRRYSCAHCRA [D11M], the protein stability index was found to be 2.47.
SKPKTFQAYLGDCHRRYSCAHCRA [D11G]: the protein stability index was 1.97.
As for SKPKTFQAYLHDCHRRYSCAHCRA [D11H], the protein stability index amounted to 2.37.
Regarding SKPKTFQAYLEDCHRRYSCAHCRA [D11E], the protein stability index was 2.59.
Regarding SKPKTFQAYLCDCHRRYSCAHCRA [D11C], the protein stability index was 3.36.
For the variant SKPKTFQAYLQDCHRRYSCAHCRA [D11Q], the protein stability index was 2.21.
Turning to SKPKTFQAYLNDCHRRYSCAHCRA [D11N], the protein stability index turned out to be 2.6.
As to SKPKTFQAYLVDCHRRYSCAHCRA [D11V], the protein stability index is 1.75.
For SKPKTFQAYLWDCHRRYSCAHCRA [D11W], the protein stability index is 1.5.
As for SKPKTFQAYLIDCHRRYSCAHCRA [D11I], the figure is 2.92.
As for SKPKTFQAYLLDCHRRYSCAHCRA [D11L], the protein stability index is 2.11.
Take SKPKTFQAYLKDCHRRYSCAHCRA [D11K]: the protein stability index was 2.83.
For the variant SKPKTFQAYLRDCHRRYSCAHCRA [D11R], the protein stability index is 1.9.
With SKPKTFQAYKDDCHRRYSCAHCRA [L10K], the protein stability index is 2.94.
Take SKPKTFQAYVDDCHRRYSCAHCRA [L10V]: the protein stability index was found to be 1.57.
As for SKPKTFQAYDDDCHRRYSCAHCRA [L10D], the figure is 2.53.
As for SKPKTFQAYIDDCHRRYSCAHCRA [L10I], the figure is 2.41; as for SKPKTFQAYGDDCHRRYSCAHCRA [L10G], 2.79; as for SKPKTFQAYTDDCHRRYSCAHCRA [L10T], 2.14.
SKPKTFQAYCDDCHRRYSCAHCRA [L10C]: the protein stability index was determined as 3.6.
Consider SKPKTFQAYHDDCHRRYSCAHCRA [L10H], for which the protein stability index is 3.32.
In the case of SKPKTFQAYYDDCHRRYSCAHCRA [L10Y], the protein stability index worked out at 1.97.
Consider SKPKTFQAYFDDCHRRYSCAHCRA [L10F], for which the protein stability index amounted to 1.99.
As for SKPKTFQAYQDDCHRRYSCAHCRA [L10Q], the protein stability index came out at 2.48.
In the case of SKPKTFQAYNDDCHRRYSCAHCRA [L10N], the protein stability index is 2.62.
As for SKPKTFQAYMDDCHRRYSCAHCRA [L10M], the figure is 1.75; as for SKPKTFQAYSDDCHRRYSCAHCRA [L10S], 2.8; as for SKPKTFQAYADDCHRRYSCAHCRA [L10A], 2.54.
On to SKPKTFQAYEDDCHRRYSCAHCRA [L10E], for which the protein stability index was 3.4.
As for SKPKTFQAYRDDCHRRYSCAHCRA [L10R], the protein stability index turned out to be 2.62.
Take SKPKTFQAYWDDCHRRYSCAHCRA [L10W]: the protein stability index turned out to be 2.05.
As to SKPKTFQAYPDDCHRRYSCAHCRA [L10P], the protein stability index came out at 2.79.
Consider SKPKTFQAYLDDCHRRYDCAHCRA [S18D], for which the protein stability index came to 1.5.
For SKPKTFQAYLDDCHRRYECAHCRA [S18E], the protein stability index worked out at 1.52.
